B1: HDV Ribozyme (parent)
chain: GGCCGGCAUGGUCCCAGCCUCCUCGCUGGCGCCGGCUGGGCAACAUUCCGAGGGGACCGUCCCCUCGGUAAUGGCGAAUGGGACCCA

Variants of: B1
Assay: self-cleavage, relative activity (ratio to wild type); higher = more cleavage; co-transcriptional

Variant | self-cleavage
G2C G76C | 0.0747
G2C G76A | 0.13
G2C C64A | 0.0652
G2C C64U | 0.0219
G2C C64G | 0.0804
G2C C57A | 0.086
G2A A71G | 0.241
G2A A71C | 0.13
G2C G53A | 0.108
G2U G40A | 0.0369
G2U G40C | 0.0455
G2C C66G | 0.0978
G2C A16G | 0.131
G2C A16U | 0.0282
G2C U27C | 0.0496
G2C U27G | 0.0437
G2A G31A | 0.0729
G2A G31U | 0.0205
G2U A51U | 0.0799
G2A C15U | 0.113
G2A C15A | 0.0382
G2C G25A | 0.0528
G2C G39U | 0.0246
G2C C85U | 0.0287

Variant | self-cleavage
G2C C85A | 0.0287
G2C C85G | 0.0563
G2U A71U | 0.0287
G2A U47A | 0.0314
G2U C4G | 0.0228
G2A C21A | 0.0158
G2A C21U | 0.0161
G2U C66G | 0.0198
G2U C66U | 0.0895
G2C C36A | 0.138
G2C C36U | 0.0799
G2A C44G | 0.0185
G2A C44A | 0.0875
G2U G28U | 0.0246
G2A A45G | 0.0779
G2A A45U | 0.111
G2U G38U | 0.0126
G2U G38A | 0.032
G2A C13U | 0.058
G2C G52A | 0.113
G2A C57G | 0.158
G2A C57A | 0.258
G2U A8G | 0.0272
G2U A8U | 0.134

Variant | self-cleavage
G2A G76A | 0.0391
G2A G76C | 0.225
G2C C26A | 0.314
G2C U65C | 0.14
G2C U65A | 0
G2A G17A | 0.0604
G2A G17C | 0
G2A C4U | 0.163
G2C C4U | 0.475
G2U C26A | 0.0357
G2A G73C | 0.0608
G2C | 0.0584
G2U | 0.0584
G2C U9C | 0.128
G2C A77G | 0.0346
G2U C75G | 0.0256
G2A C66A | 0.194
G2A C66G | 0.213
G2U C48G | 0.0615
G2U C48U | 0.0563
G2U C33U | 0.0422
G2U G52C | 0.0339
G2U G52A | 0.0704
G2A C61A | 0.351

Variant | self-cleavage
G2A C61U | 0.149
G2A C61G | 0.102
G2A C22A | 0.0205
G2A C22U | 0.0183
G2C U47C | 0.102
G2U A77G | 0
G2U A77U | 0.0244
G2A U69G | 0.219
G2A U69C | 0.332
G2C U37C | 0.17
G2C U69C | 0.175
G2U C15G | 0.0282
G2U C15U | 0
G2U C7A | 0.013
G2U C7U | 0.0264
G2U A42U | 0.0647
G2A A78U | 0.0674
G2C C62U | 0.0841
G2U G6C | 0.106
G2U G6A | 0.0355
G2A C64G | 0.0923
G2C G55A | 0.0941
G2C G34U | 0.0966
G2C G34A | 0.0504

Variant | self-cleavage
G2U G25C | 0.0244
G2U G25A | 0.0391
G2A G6U | 0.0683
G2A G6C | 0
G2U C30U | 0.025
G2U C30G | 0.0601
G2A C62G | 0.086
G2A C62A | 0.137
G2C G38A | 0.0747
G2C G38C | 0.0475
G2U A45C | 0
G2U A45G | 0
G2U C44G | 0
G2C C32U | 0.101
G2C C32A | 0.0712
G2C C32G | 0.0554
G2A C3A | 0.0478
G2A C3U | 0.567
G2U C61G | 0.0386
G2U C61A | 0.0913
G2C C48A | 0
G2C C48G | 0.0545
G2U A83C | 0.0594
G2U A83U | 0.0536

Variant | self-cleavage
G2U A83G | 0.0815
G2C C41A | 0
G2C C41G | 0.103
G2A G38C | 0.07
G2A G38A | 0.0314
G2A G80U | 0.0227
G2A G40A | 0.136
G2A G40C | 0
G2A G40U | 0.0799
G2U A78U | 0
G2U A78C | 0.0198
G2C C15U | 0.0563
G2A U46G | 0.0817
G2A U46A | 0.0601
G2A G74A | 0.0457
G2C C84A | 0.0462
G2C C84G | 0.0639
G2A C18A | 0.0236
G2A C18G | 0.0817
G2A C18U | 0.0239
G2C A71G | 0.021
G2C C14G | 0.0773
G2C G67A | 0.0449
G2A G55C | 0.194

Variant | self-cleavage
G2A G55U | 0.271
G2A G55A | 0.191
G2C G5C | 0.237
G2C G5U | 0.145
G2U A87C | 0.0661
G2C G50C | 0.0277
G2C G50A | 0.138
G2U C62A | 0.0166
G2U C62G | 0.136
G2A G52U | 0.201
G2C U60C | 0.0545
G2C U23G | 0.0268
G2C U23A | 0
G2U G50U | 0
G2A G50U | 0.0779
G2A G50C | 0.205
G2C G81A | 0.0511
G2C G11A | 0.0455
G2C C63A | 0.0213
G2A G11C | 0.0519
G2C A51G | 0.0831
G2A U9C | 0.113
G2A U9G | 0.192
G2A C32A | 0.0507

Variant | self-cleavage
G2A C32G | 0.0441
G2C C18G | 0
G2A G29C | 0.0292
G2A G29U | 0.0205
G2A C14U | 0.169
G2A C14G | 0.0773
G2C C13A | 0.0707
G2C C44A | 0.0449
G2C C44G | 0.0656
G2C C44U | 0.0453
G2A U65A | 0.173
G2U C22A | 0.035
G2U C22U | 0.032
G2U C22G | 0.0193
G2C C86A | 0.128
G2C C86U | 0.0779
G2C A56G | 0.0332
G2C A56U | 0.0482
G2C A56C | 0.0678
G2U A43C | 0.0292
G2U A43U | 0.0866
G2A C41G | 0.0645
G2A C41U | 0.198
G2C U12G | 0.0426

Variant | self-cleavage
G2C U12A | 0.17
G2A G81C | 0.115
G2A G81A | 0.0692
G2A G81U | 0.0346
G2U C41U | 0.0419
G2U C41G | 0.0119
G2A G5C | 0.0419
G2C C33U | 0.0608
G2C C33G | 0.0514
G2A A51U | 0.155
G2A A51C | 0.203
G2A C75A | 0.0542
G2A C75G | 0.0615
G2C G59C | 0.0923
G2A A56G | 0.242
G2U C86A | 0.152
G2U C86U | 0.095
G2U A56C | 0.0405
G2U A56U | 0.016
G2U C36G | 0.185
G2A G68U | 0.0645
G2A G68A | 0.185
G2A G68C | 0.177
G2U G29A | 0.0178

Variant | self-cleavage
G2A G82C | 0.0639
G2U G31A | 0.0578
G2U G31U | 0.0268
G2C G68C | 0.0244
G2C G68A | 0.0504
G2C G68U | 0.0449
G2C C30A | 0.0875
G2C C30G | 0.0594
G2C U79G | 0
G2C U79C | 0.101
G2C C58G | 0.13
G2C C58A | 0
G2U C18G | 0.0692
G2C A78G | 0.0875
G2C A78U | 0.132
G2C G80C | 0.154
G2C G80U | 0.0392
G2C A87G | 0.0671
G2C A87C | 0.0523
G2C A87U | 0.0825
G2A G59U | 0.19
G2A G59C | 0.244
G2U C63G | 0.0528
G2U C63A | 0.101

Variant | self-cleavage
G2U C63U | 0.0545
G2U A16C | 0
G2C G28U | 0.014
G2U G17U | 0.0366
G2U G17A | 0
G2C G31U | 0.109
G2C G31C | 0.0237
G2U C13A | 0
G2U C13G | 0
G2A C19G | 0
G2A C26U | 0.138
G2U G34U | 0.0369
G2C G35A | 0.0623
G2C G35U | 0.0747
G2C G35C | 0.124
G2C U72A | 0.106
G2A C58G | 0.151
G2A G25A | 0.0346
G2A G25U | 0.161
G2A G25C | 0.0744
G2U C85U | 0
G2C G54U | 0.0723
G2C G54A | 0.0777
G2C G74U | 0.1

Variant | self-cleavage
G2C G74C | 0.0308
G2C G74A | 0.113
G2A G67A | 0.11
G2C C75A | 0
G2C C75G | 0.0314
G2A A77U | 0.0631
G2A A77G | 0.141
G2A A77C | 0.0437
G2U A70C | 0.0373
G2U A70U | 0.0548
G2U A70G | 0.0715
G2C C61A | 0.0391
G2C A42U | 0.0475
G2U C84U | 0.0604
G2A U79C | 0.0804
G2A U79A | 0.0225
G2A U79G | 0.089
G2C A8C | 0.0639
G2C A8U | 0
G2C G17A | 0
G2C G17C | 0.0536
G2C G82U | 0
G2U C64G | 0.0791
G2C C19A | 0.106

Variant | self-cleavage
G2C C19G | 0.102
G2A U12C | 0.0627
G2A G54U | 0.127
G2A G54C | 0.296
G2A G54A | 0.194
G2A C49G | 0.135
G2A C49A | 0.122
G2C G6U | 0.0601
G2C G10A | 0.145
G2C G10C | 0
G2C G10U | 0.056
G2A G34U | 0.0449
G2U C19G | 0
G2U C19A | 0.0165
G2U C19U | 0.0155
G2A G39U | 0.0305
G2A G39C | 0.0712
G2U C49U | 0.0821
G2U C49G | 0.0329
G2A G10U | 0.0837
G2A G10C | 0.105
G2U C21G | 0.0594
G2A C33U | 0.035
G2U G5C | 0

Variant | self-cleavage
G2U C57A | 0.156
G2C U20A | 0.0361
G2U C32U | 0.0437
G2U C32A | 0.0302
G2A A83G | 0.122
G2A A83C | 0.0583
G2C A70G | 0
G2C A70U | 0.0601
G2U C24G | 0.0225
G2U C24U | 0.0784
G2A G53U | 0.145
G2C G29U | 0.0494
G2C G29A | 0.155
G2C G73A | 0.0252
G2C G73C | 0.106
G2A G35A | 0.0569
G2A G35U | 0.0602
G2A G28A | 0.0107
G2A C24U | 0.101
G2A A87U | 0.237
G2A A87G | 0.145
G2A A87C | 0.273
